The results in this text go back to patent US20050267020A1, “Polypeptides derived from inducible hsp70 and pharmaceutical compositions containing the same” (priority 2001, published 2005).

The target of experiment [1] is T1, HLA-B*0702 (Homo sapiens, UniProt P01889).
T1 construct: expressed in transfected cells; host or cells: T2-B7 cells (Tap-/-)
The experiment can be described thus: Measurement of peptide relative affinity to HLA-B*0702. Format: binding. The note with it: for Relative affinity: towards HLA-B*0702 molecule, lower = stronger binding. The method, then:
Measurement of Peptide Relative Affinity to HLA class I. Tap−/− cells expressing the studied HLA-class I molecule (3×10^5 cells/mL) were incubated with various concentrations of peptides ranging from 100 μM to 0.1 μM in serum-free RPMI 1640 medium supplemented with 100 ng/ml of human β-2m at 37° C. for 16 hours. Cells were then washed twice and stained with the specific anti-class I mAb followed by FITC conjugated goat anti mouse Ig mAb to quantify the expression of HLA-A*0201. For each peptide concentration, the HLA-specific staining was calculated as the % of the staining obtained with 100 μM of the reference peptide. The relative affinity (RA) is determined as: RA=(Concentration of each peptide that induces 20% of HLA expression/Concentration of the reference peptide that induces 20% of HLA expression). The lower the RA-value, the stronger is the peptide binding to HLA. The mean RA value for each peptide is determined from at least three independent experiments.
For the study of Relative Affinity to HLA-A*0201, Tap−/− HLA-A*0201 T2 cells, the HLA-A*0201 specific mAb BB7.2 and the reference HLA-A*0201-binding peptide HIVpol 589 (IVGAETFYV) were used. For the study of Relative Affinity to HLA-A*0301, Tap−/− HLA-A*0301 T2-A3 cells are used. For the study of Relative Affinity to HLA-B*0701, Tap−/− HLA-B*0701 T2-B7 cells are used.
High affinity peptide discovery was also lead for the MHC molecule HLA-B*0702. 11 peptides presenting the primary anchor motif for HLA-B*0702 or predicted to show a high affinity by the computerized program BIMAS were tested for their Relative Affinity.

For experiment [2], the target named is T2, HLA-A*0201 (human).
T2 construct: MHC class I molecule on TAP-deficient T2 cells; stabilised at the surface by the added peptide and detected with mAb BB7.2
Put plainly: decay of peptide-stabilised HLA-A*0201 on T2 cells after Brefeldin A, flow cytometry. Background: A flow cytometer gives signals particle by particle.
Method: Assessment of Peptide/HLA class I Complex Stability. […] Cells were then washed four times to remove free peptide, incubated with Brefeldin A (10 μg/mL) for 1 hour to block cell surface expression of newly synthesized HLA molecules, washed and incubated at 37° C. for 0, 2, 4 or 6 hours. Subsequently, cells were stained with the HLA specific mAb followed by FITC conjugated goat anti mouse Ig mAb.

The target in experiment [3] is T2, HLA-A*0201. Put plainly: HLA-A*0201 stabilisation on T2 cells, flow cytometry with BB7.2; ratio to reference peptide HIVpol 589.
Method: For each peptide concentration, the HLA-specific staining was calculated as the % of the staining obtained with 100 μM of the reference peptide. […] The mean RA value for each peptide is determined from at least three independent experiments.

Some results are limits rather than exact numbers.

The molecule APLSLGLET [HSP 397] showed a Relative affinity in experiment [1] of more than 10.
In turn, DVAPLSLGL [HSP 395] had a Relative affinity in experiment [1] of more than 10.
GPGPGGFGA [HSP 616] displayed a Relative affinity in experiment [1] of more than 10.
Regarding IPTKQTQIF [HSP 420], the Relative affinity in experiment [1] is given as more than 10.
The same measure, in the same setting: the same measure for IPTKQTQIFT [HSP 420(10)]: more than 10; for QVCNPIISGL [HSP 601]: more than 10; for STRIPKVQKL [HSP 340]: more than 10.
In turn, YPEEISSMV [HSP 115] had a Relative affinity in experiment [1] of more than 10.
As for YPEEISSMVL [HSP 115(10)], the Relative affinity in experiment [1] is more than 10.
YPVTNAVIT [HSP 137]: the “affinity for HLA-B*0702 (in words)” value in experiment [1] (Relative Affinity determination) was “high affinity”. In experiment [1], this molecule registered a Relative affinity of 1.2.
As to YPVTNAVITV [HSP 137(10)], the Relative affinity in experiment [1] is listed as more than 10.
As to LMGDKSENV [HSP 380 (LMGDKSENV)], in experiment [2], the “Stability (hrs) (DC50, half life of the HLA-A*0201/peptide complex)” value came to 4 h. For the same molecule, the Relative affinity in experiment [3] worked out at 2.5.
YLGYPVTNAV (also called HSPI34(10)) [HSP 134(10) (YLGYPVTNAV)]: in experiment [3], the Relative affinity came to 0.6.
For the molecule LLLLDVAPL [HSP 391 (LLLLDVAPL)], in experiment [2], the “Stability (hrs) (DC50, half life of the HLA-A*0201/peptide complex)” value was more than 6 h. In addition, the Relative affinity in experiment [3] is 0.5.
As to SLFEGIDFYT [HSP 286 (SLFEGIDFYT)], the “Stability (hrs) (DC50, half life of the HLA-A*0201/peptide complex)” value in experiment [2] is more than 6 h. Besides, the Relative affinity in experiment [3] is 0.25.
Turning to YLGYPVTNA [HSP 134 (YLGYPVTNA)], the Relative affinity in experiment [3] is 2.5.
For LLDVAPLSL [HSP 393 (LLDVAPLSL)], the Relative affinity in experiment [3] came to 0.4.
